Test results published in the supplement of paper PMC5998384.

Columns and labels:
HeLa Kyoto [1] = experiment: solubility change mitosis vs G1/S (difference of NP-40 vs SDS log2 ratios) (log2 ratio difference); higher = more soluble in mitosis
HeLa Kyoto [2] = experiment: solubility in G1/S (NP-40 vs SDS abundance) (log2 ratio); higher = more soluble; conditions: cell cycle stage: G1/S
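Throughout, for solubility change mitosis vs G1/S (difference of NP-40 vs SDS log2 ratios): synchronized HeLa Kyoto cells (double thymidine block for G1/S, nocodazole release for mitosis), protein amounts in NP-40 versus SDS lysates quantified by mass spectrometry, three biological replicates.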
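Throughout, for solubility in G1/S (NP-40 vs SDS abundance): HeLa Kyoto cells arrested at G1/S by double thymidine block, proteins quantified by TMT10plex mass spectrometry in mild NP-40 versus SDS extracts, three biological replicates.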

Row | Sequence | solubility change mitosis (log2) (HeLa Kyoto [1]) | solubility in G1/S (log2) (HeLa Kyoto [2])
1 | MGLKAAQKTLFPLRSIDDVVRLFAAELGREEPDLVLLSLVLGFVEHFLAVNRVIPTNVPELTFQPSPAPDPPGGLTYFPVADLSIIAALYARFTAQIRGAVDLSLYPREGGVSSRELVKKVSDVIWNSLSRSYFKDRAHIQSLFSFITGTKLDSSGVAFAVVGACQALGLRDVHLALSEDHAWVVFGPNGEQTAEVTWHGKGNEDRRGQTVNAGVAERSWLYLKGSYMRCDRKMEVAFMVCAINPSIDLHTDSLELLQLQQKLLWLLYDLGHLERYPMALGNLADLEELEPTPGRPDPLTLYHKGIASAKTYYRDEHIYPYMYLAGYHCRNRNVREALQAWADTATVIQDYNYCREDEEIYKEFFEVANDVIPNLLKEAASLLEAGEERPGEQSQGTQSQGSALQDPECFAHLLRFYDGICKWEEGSPTPVLHVGWATFLVQSLGRFEGQVRQKVRIVSREAEAAEAEEPWGEEAREGRRRGPRRESKPEEPPPPKKPALDKGLGTGQGAVSGPPRKPPGTVAGTARGPEGGSTAQVPAPTASPPPEGPVLTFQSEKMKGMKELLVATKINSSAIKLQLTAQSQVQMKKQKVSTPSDYTLSFLKRQRKGL [MEN1] | 0.197 | -0.472
2 | MGNIFGNLLKSLIGKKEMRILMVGLDAAGKTTILYKLKLGEIVTTIPTIGFNVETVEYKNISFTVWDVGGQDKIRPLWRHYFQNTQGLIFVVDSNDRERVNEAREELMRMLAEDELRDAVLLVFANKQDLPNAMNAAEITDKLGLHSLRHRNWYIQATCATSGDGLYEGLDWLANQLKNKK [ARF3] | -0.299 | -0.169
3 | MGPLRESKKEHRVQHHDKEISRSRIPRLILRPHMPQQQHKVSPASESPFSEEESREFNPSSSGRSARTVSSNSFCSDDTGCPSSQSVSPVKTPSDAGNSPIGFCPGSDEGFTRKKCTIGMVGEGSIQSSRYKKESKSGLVKPGSEADFSSSSSTGSISAPEVHMSTAGSKRSSSSRNRGPHGRSNGASSHKPGSSPSSPREKDLLSMLCRNQLSPVNIHPSYAPSSPSSSNSGSYKGSDCSPIMRRSGRYMSCGENHGVRPPNPEQYLTPLQQKEVTVRHLKTKLKESERRLHERESEIVELKSQLARMREDWIEEECHRVEAQLALKEARKEIKQLKQVIETMRSSLADKDKGIQKYFVDINIQNKKLESLLQSMEMAHSGSLRDELCLDFPCDSPEKSLTLNPPLDTMADGLSLEEQVTGEGADRELLVGDSIANSTDLFDEIVTATTTESGDLELVHSTPGANVLELLPIVMGQEEGSVVVERAVQTDVVPYSPAISELIQSVLQKLQDPCPSSLASPDESEPDSMESFPESLSALVVDLTPRNPNSAILLSPVETPYANVDAEVHANRLMRELDFAACVEERLDGVIPLARGGVVRQYWSSSFLVDLLAVAAPVVPTVLWAFSTQRGGTDPVYNIGALLRGCCVVALHSLRRTAFRIKT [SYBU] | 0.0944 | -0.253
4 | MGSELIGRLAPRLGLAEPDMLRKAEEYLRLSRVKCVGLSARTTETSSAVMCLDLAASWMKCPLDRAYLIKLSGLNKETYQSCLKSFECLLGLNSNIGIRDLAVQFSCIEAVNMASKILKSYESSLPQTQQVDLDLSRPLFTSAALLSACKILKLKVDKNKMVATSGVKKAIFDRLCKQLEKIGQQVDREPGDVATPPRKRKKIVVEAPAKEMEKVEEMPHKPQKDEDLTQDYEEWKRKILENAASAQKATAE [ORC6] | -0.389 | 0.47
5 | MGSKERFHWQSHNVKQSGVDDMVLLPQITEDAIAANLRKRFMDDYIFTYIGSVLISVNPFKQMPYFTDREIDLYQGAAQYENPPHIYALTDNMYRNMLIDCENQCVIISGESGAGKTVAAKYIMGYISKVSGGGEKVQHVKDIILQSNPLLEAFGNAKTVRNNNSSRFGKYFEIQFSRGGEPDGGKISNFLLEKSRVVMQNENERNFHIYYQLLEGASQEQRQNLGLMTPDYYYYLNQSDTYQVDGTDDRSDFGETLSAMQVIGIPPSIQQLVLQLVAGILHLGNISFCEDGNYARVESVDLLAFPAYLLGIDSGRLQEKLTSRKMDSRWGGRSESINVTLNVEQAAYTRDALAKGLYARLFDFLVEAINRAMQKPQEEYSIGVLDIYGFEIFQKNGFEQFCINFVNEKLQQIFIELTLKAEQEEYVQEGIRWTPIQYFNNKVVCDLIENKLSPPGIMSVLDDVCATMHATGGGADQTLLQKLQAAVGTHEHFNSWSAGFVIHHYAGKVSYDVSGFCERNRDVLFSDLIELMQTSEQAFLRMLFPEKLDGDKKGRPSTAGSKIKKQANDLVATLMRCTPHYIRCIKPNETKRPRDWEENRVKHQVEYLGLKENIRVRRAGFAYRRQFAKFLQRYAILTPETWPRWRGDERQGVQHLLRAVNMEPDQYQMGSTKVFVKNPESLFLLEEVRERKFDGFARTIQKAWRRHVAVRKYEEMREEASNILLNKKERRRNSINRNFVGDYLGLEERPELRQFLGKRERVDFADSVTKYDRRFKPIKRDLILTPKCVYVIGREKVKKGPEKGQVCEVLKKKVDIQALRGVSLSTRQDDFFILQEDAADSFLESVFKTEFVSLLCKRFEEATRRPLPLTFSDTLQFRVKKEGWGGGGTRSVTFSRGFGDLAVLKVGGRTLTVSVGDGLPKSSKPTRKGMAKGKPRRSSQAPTRAAPAPPRGMDRNGVPPSARGGPLPLEIMSGGGTHRPPRGPPSTSLGASRRPRARPPSEHNTEFLNVPDQGMAGMQRKRSVGQRPVPGVGRPKPQPRTHGPRCRALYQYVGQDVDELSFNVNEVIEILMEDPSGWWKGRLHGQEGLFPGNYVEKI [MYO1F] | -0.173 | -0.1
6 | MGSQHSAAARPSSCRRKQEDDRDGLLAEREQEEAIAQFPYVEFTGRDSITCLTCQGTGYIPTEQVNELVALIPHSDQRLRPQRTKQYVLLSILLCLLASGLVVFFLFPHSVLVDDDGIKVVKVTFNKQDSLVILTIMATLKIRNSNFYTVAVTSLSSQIQYMNTVVSTYVTTNVSLIPPRSEQLVNFTGKAEMGGPFSYVYFFCTVPEILVHNIVIFMRTSVKISYIGLMTQSSLETHHYVDCGGNSTAI [TMEM106C] | -0.29 | 0.121
7 | MGTFCSVIKFENLQELKRLCHWGPIIALGVIAICSTMAMIDSVLWYWPLHTTGGSVNFIMLINWTVMILYNYFNAMFVGPGFVPLGWKPEISQDTMYLQYCKVCQAYKAPRSHHCRKCNRCVMKMDHHCPWINNCCGYQNHASFTLFLLLAPLGCIHAAFIFVMTMYTQLYHRLSFGWNTVKIDMSAARRDPLPIVPFGLAAFATTLFALGLALGTTIAVGMLFFIQMKIILRNKTSIESWIEEKAKDRIQYYQLDEVFVFPYDMGSRWRNFKQVFTWSGVPEGDGLEWPVREGCHQYSLTIEQLKQKADKRVRSVRYKVIEDYSGACCPLNKGIKTFFTSPCTEEPRIQLQKGEFILATRGLRYWLYGDKILDDSFIEGVSRIRGWFPRKCVEKCPCDAETDQAPEGEKKNR [ZDHHC6] | -0.272 | -0.0586
8 | MGTSLSPNDPWPLNPLSIQQTTLLLLLSVLATVHVGQRLLRQRRRQLRSAPPGPFAWPLIGNAAAVGQAAHLSFARLARRYGDVFQIRLGSCPIVVLNGERAIHQALVQQGSAFADRPAFASFRVVSGGRSMAFGHYSEHWKVQRRAAHSMMRNFFTRQPRSRQVLEGHVLSEARELVALLVRGSADGAFLDPRPLTVVAVANVMSAVCFGCRYSHDDPEFRELLSHNEEFGRTVGAGSLVDVMPWLQYFPNPVRTVFREFEQLNRNFSNFILDKFLRHCESLRPGAAPRDMMDAFILSAEKKAAGDSHGGGARLDLENVPATITDIFGASQDTLSTALQWLLLLFTRYPDVQTRVQAELDQVVGRDRLPCMGDQPNLPYVLAFLYEAMRFSSFVPVTIPHATTANTSVLGYHIPKDTVVFVNQWSVNHDPLKWPNPENFDPARFLDKDGLINKDLTSRVMIFSVGKRRCIGEELSKMQLFLFISILAHQCDFRANPNEPAKMNFSYGLTIKPKSFKVNVTLRESMELLDSAVQNLQAKETCQ [CYP1B1] | -0.171 | -0.0639
9 | MGVQGFQEFLEKRCPGAVVPVDLLKLARTVSRQQQQQHLHRQLPPTAALAPGAPRAARGSVPLQPPLPPAALGAYSGGAGPTRHHHPAHHFHHHGQAQPGLHPPLPPPPPPQLPGARVLVDAGSALPRLYGGYQTDWVCGGQWNAMLGYLSALCQACAYPGGDGLELVVMFPGGLGKDRLAEWGRRCQAERQTAQLIVGHVGNKGTPPPRAWFLPPACLSHCVRLALIRFRVKVFQSLEDHHLEVVAFFRENGFHGLLAHDSEYALYNIPSYYSSHALKLSWNGKNLTTNQFLMQEVAKQLGLKRMNFPIFAALLGNHILPDEDLAAFHWSLLGPEHPLASLKVRAHQLVLPPCDVVIKAVSEYVSSIKDPSNLDVVGKDVFKQSQSRTEDKIERFKKAVEYYSVTTKLSSLPVGPSFLGFRNNRLGNPPLPRNQVGTISAGKPMFSHQVPQKVKYPPPFPVGPNSSLLFSSHALGESHAFSEDPMLQNSPFANWAVSYDSSASQFPNYLPSKASPPLGPDSSHSSSSDGDEPNGASSDHITEAFHHQPEWGNPNRDRGSWAQPVDTGVSEASLGDGEPHIPSLLSMSTRNHMDITIPPLPPVAPEVLRVAEHRHRRGLMYPYIYHVLTKGEIKIPVCIEDECNMELPPAALLFRSARQYVYGVLFSLAETQRKMERLAMRRRLPVEVPSVILKEWSAYKGKSPQTPELVSALTFREWTCPNLKKLWLGKAVEDKNRRMRAFLACMKSDTPSMLNPANVPTHLLLMCCVLRYMVQWPGGRILHRHELDTFLAQAVSTQLYEPDRLQELKIEKLDARGIQLAALFMSGVDTALFANDACGQPVPWEHCCPWIYFDGKLFQSKLIKAGRERVSLVELCDGQADLATKVEKMRQSILEGVNMNHPPPSALLPSPTFVPPMVPSLYPVSLYSRAMGSMPLPPQGRSRGFAGLHPIPPQGGKLEIAGMVVGQWAGSRSSRGRGSFGMQVVSVGGPGKGHGKEQTGRGSKGHKKGNKQGSSDGVSKSLELHQGRSRSQVNGNSGALIKEEKSDHRLPAPSQCALSRDSNECNNGNRYLPMNNREKNHLQEQKLETVAQRKED [FAM120C] | -0.0292 | 0.0177
10 | MGVSKLDILYRRLLLTKLFIRGWGRPEDLKRLFEFRKMIGNRERCQNLVSSDYPVHIDKIEEQSDCKILDGHFVSPMAHYVPDIMPIESVIARFQFIVPKEWNSKYRPVCIHLAGTGDHHYWRRRTLMARPMIKEARMASLLLENPYYGCRKPKDQVRSSLKNVSDLFVMGGALVLESAALLHWLEREGYGPLGMTGISMGGHMASLAVSNWPKPMPLIPCLSWSTASGVFTTTDSFKMGQEFVKHFTSSADKLTNLNLVSRTLNLDISNQVVSQKPADCHNSSKTSVSATSEGLLLQDTSKMKRFNQTLSTNKSGYTSRNPQSYHLLSKEQSRNSLRKESLIFMKGVMDECTHVANFSVPVDPSLIIVVQAKEDAYIPRTGVRSLQEIWPGCEIRYLEGGHISAYLFKQGLFR [ABHD18] | -0.181 | -0.33
11 | MHARGPHGQLSPALPLASSVLMLLMSTLWLVGAGPGLVLAPELLLDPWQVHRLLTHALGHTALPGLLLSLLLLPTVGWQQECHLGTLRFLHASALLALASGLLAVLLAGLGLSSAAGSCGYMPVHLAMLAGEGHRPRRPRGALPPWLSPWLLLALTPLLSSEPPFLQLLCGLLAGLAYAAGAFRWLEPSERRLQVLQEGVLCRTLAGCWPLRLLATPGSLAELPVTHPAGVRPPIPGPPYVASPDLWSHWEDSALPPPSLRPVQPTWEGSSEAGLDWAGASFSPGTPMWAALDEQMLQEGIQASLLDGPAQEPQSAPWLSKSSVSSLRLQQLERMGFPTEQAVVALAATGRVEGAVSLLVGGQVGTETLVTHGKGGPAHSEGPGPP [RHBDD3] | 0.0168 | -0.0767
